# Results: paper PMC4754693 (Scientific Reports, 2016)
# Target: the molecule itself
# Test: AUC
protein,measurement,value
"SARS 3C-like proteinase (SARS-3CLpro), wild type (enzyme) SGFRKMAFPSGKVEGCMVQVTCGTTTLNGLWLDDTVYCPRHVICTAEDMLNPNYEDLLIRKSNHSFLVQAGNVQLRVIGHSMQNCLLRLKVDTSNPKTPKYKFVRIQPGQTFSVLACYNGSPSGVYQCAMRPNHTIKGSFLNGSCGSVGFNIDYDCVSFCYMHHMELPTGVHAGTDLEGKFYGPFVDRQTAQAAGTDTTITLNVLAWLYAAVINGDRWFLNRFTTTLNDFNLVAMKYNYEPLTQDHVDILGPLSAQTGIAVLDMCAALKELLQNGMNGRTILGSTILEDEFTPFDVVRQCSGVTFQ",stoichiometry N,2
